The target of series [1] is T1, PcrA helicase (UniProt P56255 1-724).
T1 sequence: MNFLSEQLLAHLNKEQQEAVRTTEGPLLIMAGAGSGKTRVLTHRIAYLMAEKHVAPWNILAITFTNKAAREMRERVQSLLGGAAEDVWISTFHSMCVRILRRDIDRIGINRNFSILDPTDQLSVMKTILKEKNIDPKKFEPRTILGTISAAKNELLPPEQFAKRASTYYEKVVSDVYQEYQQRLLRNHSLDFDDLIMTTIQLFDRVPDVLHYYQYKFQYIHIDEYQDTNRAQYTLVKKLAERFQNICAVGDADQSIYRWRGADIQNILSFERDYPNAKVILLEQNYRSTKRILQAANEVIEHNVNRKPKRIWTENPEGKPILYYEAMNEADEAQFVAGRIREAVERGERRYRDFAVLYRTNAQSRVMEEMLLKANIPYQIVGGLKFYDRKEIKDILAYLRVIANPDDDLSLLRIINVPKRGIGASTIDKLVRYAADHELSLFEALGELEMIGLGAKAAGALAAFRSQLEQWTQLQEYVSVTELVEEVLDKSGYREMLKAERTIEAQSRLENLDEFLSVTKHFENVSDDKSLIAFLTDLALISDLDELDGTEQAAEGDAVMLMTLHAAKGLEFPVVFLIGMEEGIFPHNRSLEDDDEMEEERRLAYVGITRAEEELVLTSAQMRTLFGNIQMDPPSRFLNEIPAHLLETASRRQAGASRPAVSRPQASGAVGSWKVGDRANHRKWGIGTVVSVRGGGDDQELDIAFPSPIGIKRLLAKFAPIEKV
Put plainly: not stated in material.

For series [2], the target named is T2, RepD (Staphylococcus aureus, UniProt P03065).
T2 chain: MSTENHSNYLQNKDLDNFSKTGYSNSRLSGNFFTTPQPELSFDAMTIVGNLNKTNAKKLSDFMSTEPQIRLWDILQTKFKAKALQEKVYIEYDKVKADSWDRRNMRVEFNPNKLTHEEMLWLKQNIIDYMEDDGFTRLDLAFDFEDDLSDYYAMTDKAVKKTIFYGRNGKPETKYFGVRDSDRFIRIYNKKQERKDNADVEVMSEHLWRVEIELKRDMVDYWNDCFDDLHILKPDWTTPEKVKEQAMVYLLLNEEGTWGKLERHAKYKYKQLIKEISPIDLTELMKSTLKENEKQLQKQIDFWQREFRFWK
The experiment in a line: fluorescence anisotropy. (Polarisation of emitted light reports the rotation of a fluorescent probe.)

The source of these data is PMC2776994 (2009).

The Kd is the constant that tells how readily two partners part at equilibrium. In series [1], TTTTTTTTTT (ssDNA) [dT10] had a Kd of 240 nM.

B1: PcrA (protein)
chain: MNFLSEQLLAHLNKEQQEAVRTTEGPLLIMAGAGSGKTRVLTHRIAYLMAEKHVAPWNILAITFTNKAAREMRERVQSLLGGAAEDVWISTFHSMCVRILRRDIDRIGINRNFSILDPTDQLSVMKTILKEKNIDPKKFEPRTILGTISAAKNELLPPEQFAKRASTYYEKVVSDVYQEYQQRLLRNHSLDFDDLIMTTIQLFDRVPDVLHYYQYKFQYIHIDEYQDTNRAQYTLVKKLAERFQNICAVGDADQSIYRWRGADIQNILSFERDYPNAKVILLEQNYRSTKRILQAANEVIEHNVNRKPKRIWTENPEGKPILYYEAMNEADEAQFVAGRIREAVERGERRYRDFAVLYRTNAQSRVMEEMLLKANIPYQIVGGLKFYDRKEIKDILAYLRVIANPDDDLSLLRIINVPKRGIGASTIDKLVRYAADHELSLFEALGELEMIGLGAKAAGALAAFRSQLEQWTQLQEYVSVTELVEEVLDKSGYREMLKAERTIEAQSRLENLDEFLSVTKHFENVSDDKSLIAFLTDLALISDLDELDGTEQAAEGDAVMLMTLHAAKGLEFPVVFLIGMEEGIFPHNRSLEDDDEMEEERRLAYVGITRAEEELVLTSAQMRTLFGNIQMDPPSRFLNEIPAHLLETASRRQAGASRPAVSRPQASGAVGSWKVGDRANHRKWGIGTVVSVRGGGDDQELDIAFPSPIGIKRLLAKFAPIEKV
modifications: DNA junction
As to B1, binding in series [2] was characterised by a dissociation constant (Kd) of 22 nM.
